From the nanobody polyreactivity screen of Harvey et al. (2022)

Experiment: yeast display, Sf9 membrane polyspecificity reagent, FACS + sequencing; frameworks hold sequencing errors
Method in brief: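 Synthetic nanobody libraries on Saccharomyces cerevisiae BJ5465 were galactose-induced for 36–48 hours, stained 1 hour at 4 °C with 10% biotinylated, detergent-solubilized Sf9 membrane reagent and enriched on streptavidin microbeads. FACS then separated cells into low and high (top ~1%) gates by anti-HA (expression) and streptavidin (reagent binding) fluorescence. Genes were colony-PCR amplified, MiSeq 2 × 250 sequenced and CDR-length filtered. A clone's polyreactivity label is that of its gate of origin.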

QVQLVESGGGLVQAGGSLRLSCAASGIIFGLYAMGWYRQAPGKERELVAAITRSGGRTYYADSVKGRFTISRDNAKNTVYFQMNSLKPEDTAVYFCAADASGHSYDYWGQGTEVTVSS
polyreactivity (PSR sort gate): high polyreactivity

QVQLVESGGGLFQAGGSLRLSCAASGIIFYDYAMGRYRQPPAKERELVAAITSNGDNTYYADSVKWRFTISRDNAKNTVYLQMNILKPEDTAVYYCAVDGSFAADFDNYLEEYGYWGQGTQVTVSS
polyreactivity (PSR sort gate): low polyreactivity

QVQLVESGGGLVQAGGSLRLSCAASGSTFISYAMGWYRQAPGKERELVAAIRYRDGRTYYADSVKGRFTNSRDNAKNTVYLQMISLKPEDTAVYYCAAKYRGLYSGMYYWGQGTQVTVSS
polyreactivity (PSR sort gate): high polyreactivity

QVQLVESGRGLVQAGASLRLSCAASGSTFYVNAMGWYRQAPGKERELVAAITSTGTTHYADSVKGRFTISRDNAKNTVYLQMNSLKPEDTAVYYCAAYSRYQSRRYYYWGQGTQVTVSS
polyreactivity (PSR sort gate): high polyreactivity

QVQLVESGGGLVQAGGSLRLSCAASGRIIYGYAMGWYRQEPGKERELVAAITATYYGDSVKGRFTISRDNAKNTVYLQMNSLKPEDTAVYYCNAYLCPKQPLSPPDPTFEGGYWGQCTQVTVSS
polyreactivity (PSR sort gate): low polyreactivity

QVQIVESGGGLVQAGGSLRFSCAASGRTFWLNDMGWYRHAPGKERELVARISRRGGSTYYAHSVKGRFTISRDHAKNTVYLQIISLKPEDTAVYYCAAAIVTRSYKYDYWGQGTQVTVSS
polyreactivity (PSR sort gate): high polyreactivity

QVQLVESGGGLVQAGGSLRLSCAASGSTFSNYAMGWYRQAPGKERELVASISNGGSTNYADSVKGRFTISRDNAMNTVYLQMNSLKPEDTSVYNCNAESKAKYDYWGQGTQVTVSS
polyreactivity (PSR sort gate): low polyreactivity

QVQLVESGGGLVQAGGSLRLSCAASGRTFYYNGMGWYRQAPGKERELVAAITSGGTTSYADSVKGRFTISRDNAKNTVYLQMNSLKPEDTAVYYCAKRTVPRYEYWGQGTQVTVSS
polyreactivity (PSR sort gate): low polyreactivity

QVQLVESGGGLVQAGGSLRLSCAASGSTLNYYAMGWYRQAPGKERELVAAIRSGGNTNYADSVKGRFTISRDNAKNTVYLQMNSLKPEDTAVYYCAKDESYFYDRVPLDYWGQGTQVTVSS
polyreactivity (PSR sort gate): low polyreactivity

QVKLVESGGGLFQAGGSLRLSCADSGRTFYYYGMPWYIQETGKERELVAAINRGDSTKYADSVKGRFTISLDNAKNNVYLHMNSLKPEDTAVYYCNARLRCSFARFIYEYWRQGTQVTVSS
polyreactivity (PSR sort gate): low polyreactivity

QVQLVESGGGLVQAGGSLRLSCAASGSIIGNYAMGWYREAPGKERELVAAISWSGGSTYYADSVKGRFTISRDNAKNTVYLQMNSLKPEDTAVYYCAAVDYYRYRSDYDYWGQGTQVTVSS
polyreactivity (PSR sort gate): low polyreactivity

QVQLVESGGGLVQAGGSLRLSCAASGSIFGPYAMGWYRQAPGKERELVAGITRSVGSTYYADSVKGRFTISRDNAKNTVFLQMNSLKPEDTAVYYCNAKWLYSRWAGYDYWGQGTQVTVSS
polyreactivity (PSR sort gate): low polyreactivity

QVQLVESGGGLVQAGGSLRLSCAASGFISPGYAMGWYRQAPGKERELVAAITRDGGTYYADSVKGRFTISRDNAKNTVYLQMNSLKPEDTAVYYCAAEGSFRKFDYWGQGTQVTVSS
polyreactivity (PSR sort gate): low polyreactivity

QVQLVESGGGLVQAGGSLRLSCAASGFIFGYYAMGWYRQAPGKERELVAAISSGSITTYADSVKGRFTISRDNAKNTVYLQMNSLKPEDTAVYYCNAVRWFFTFVSSSSGVGHGYWGQGTQVTVSS
polyreactivity (PSR sort gate): low polyreactivity

QEQLQESGGGLVHAGGSLRLSCAASGSISQAWYMGWYRQAPGKERELVAAINGGAITYYADSVKGRFSISRDNAKNTVYLPMNSLTPEDTAVYYCAVDQYSEAYYDYWGQGTQATVSS
polyreactivity (PSR sort gate): high polyreactivity

QVQLVESAGGLVQAGGRLRLSCAASGIIFEQYAMGSYRQAPGKERELVAAISSGCTTYADSVKGRFTISRDNAKNTVYLQMNSLTPEDTAVYYGNADLSWDGPDWSDYEYDYWGQGTQVTVSS
polyreactivity (PSR sort gate): low polyreactivity

QVQLQESGSGLVQAGGSLRLSCAAIGAIFPAYLMGWYRQAPGKERELVAGISYGSITYCADSVKGRFNISRDNAKNTVYLQMNSLKPEYTAVYYCAVWRPGGDEYYYWGQGTQVTVSS
polyreactivity (PSR sort gate): low polyreactivity

QVQLQESGGGLVQAGGSLRLTCAASGTISDSGLMGWYRQAAGKERELVAGISSGGITNYADSVKGRFTISRDNAKNTVYLQMNSLIPEDTAVYWGQGTQVTVSS
polyreactivity (PSR sort gate): low polyreactivity

QVQLVESGGCLVQAGGSLRISCAASGRIFSRNAMGWYRQAPGKEREWVAAITRSSGTTYYADSVKGRFTISRDNAKNTVYLQMNSLKPEDTAVYYCAAGHTYGGYPRPSDYWGQGTQVTVSS
polyreactivity (PSR sort gate): low polyreactivity

QVQLVESGGGLVQAGGSLRLSCAASGSTFYNYALGWYRQAPGKERELVAAIRRSGGSTYYADSVKGRFTISRDNAKNTVYFQMNSLKPEDTAVYYCAASYYTRGYWGQGTQVTVSS
polyreactivity (PSR sort gate): high polyreactivity

QVQHVDSGGGLFQAAGSLRLSCAASGGTFSFYTMGWSRQGPGKERELVAAIDSTGRTNYADSVKGRFTISRDKAKNTVYLQMNSLKPEDSAVYYCSAGPPRADYDYWGQGTQVTVSS
polyreactivity (PSR sort gate): low polyreactivity

QVQLVESGGGLVQAGGSLRLSCPASGRTFKWYAMGWYRQAPGKERELVAAISTGGRTHYADSVKGRFTISRDNSKNTVYLQMNSLKPEDTAVYYCNAADDLADPERTENHKRDYWGQGTQVTVSS
polyreactivity (PSR sort gate): high polyreactivity

QVQLVESGGGLVQAGGSLRLSCAAYGRIFFRYAMGWYRQAPGKERELVATISSSGSTYYADSVKGRFTISRDNAKNTVYLQMNSLIPEDTAVYYCAATWTTRGLRHFVYNDYDYWGQGTQVTVSS
polyreactivity (PSR sort gate): high polyreactivity

QVQLVESGGGLVQAGGSLRLSCAASGSTFYLNDMGWYRQAPGKERELVAAIDWSGGSTYYAVSVKGRFTISRDNAKNTVYLQMNSLKPEDTAVYYCAARLVYEWRRLDYFIAWDYWGQGTQVTVSS
polyreactivity (PSR sort gate): low polyreactivity

QVQLVESGGGLVQAGGSLRLSCAASGFTFVYYAMGWYRQAPGKERALVASITQSGGSTRYADSVKGRFTISRDNAKNTVYLQMNSLKPEDTAVYYCNRRLYRRWGLDWQYYYWGQGTQVTVSS
polyreactivity (PSR sort gate): high polyreactivity

QLQLVESGGGLVQAGGSLRLSCASGLTFYWYAMGWYRQAPGKERELVAAINVRGGSTYYADSVKGRFTISRDNAKNTVYLQMNSLKPEDTAGYDCASYYPGFSYRYDYWGQGSQVTVSS
polyreactivity (PSR sort gate): low polyreactivity

QLQLVESGGGLVQAGGSLRLSCAASGRTFWYYTMGWYRQAPGKERELVAAISSGGRTNYADSVKGRFTISLDNAKNTVYLQMNSLKPEDTAVYYCATSRYYKYVERDYWGQGTLVTVSS
polyreactivity (PSR sort gate): high polyreactivity

QVQLVESGGGLVQAGGSLRLSCAASGRIFRSYAMGWYRQAPGKERELVAAISYSGGSTYYADSVKGRFTISRDNAKNTVYLQMNSLKPEDTAVYYCAALPGERKYIYYGYDYWGQGTQVTVSS
polyreactivity (PSR sort gate): high polyreactivity

QVQLVESGGGLVQAGGSLRLSCAASGRTFGRYAMGWYRQAPGKERELVAAISWTGGRTYYADSVKGRFTISRDNAKNTVYLQMNRLKPEDTAVYYCAALYDRNPAASRGYDSWGQGTQVTVSS
polyreactivity (PSR sort gate): high polyreactivity

QVQLVESGGGLVQAGGSLRLSSAASGITFTRNAMGWYRQAPGKERELVATIDSGDSTYYADSVKGRFTISRDNAKNTVYLQMNSQKPEDTAVYYCAAEWYGYEPSYWYYWPYEYWGQGTQVTVSS
polyreactivity (PSR sort gate): high polyreactivity

QVQLVESGGGLVQAGGSLRLSCAASGSILRLYVMGWYRQAPGKERELVADISDRGGSTYYADSVKGRFTISRDNAKNTVYLQLNSLKPEDTAVYYCDKDSETAGATYTEYDYWGQGTQVTVSS
polyreactivity (PSR sort gate): low polyreactivity

QVQLVESGGGLVQAGGSLRLSFAASGSIFIRNAMGWYRQAPGKERELVAAISIGDGSTYADSVKGRFTISRDNAKNSVYLQMNSLKPEDTAVYYCNAAGIVWRYYSYGYWGQGTQVTVSS
polyreactivity (PSR sort gate): low polyreactivity

QVQLVESGGGLVQAGGSLRLSCAASGSTFAKNAMGLYRQAPGKERELVAAISRGGNTYYADSVKGRFTISRDNAKNTVYLQMNSLKPEDTAVYYCAKLPYTRNYLGSLYDYWGQCTQVTVSS
polyreactivity (PSR sort gate): high polyreactivity

QVQLVESGGGLVQAGGSLRLSCAASGFTFWWYAMGWYRQAPGKERELVAAISSGGSTNYADSVKGRFTISRDNAKNTVYLQMNSLKPEDTAVYYCNALGVGHSGFTKFSRYYYWGQGTQVTVSS
polyreactivity (PSR sort gate): high polyreactivity

QVQLVESGGGLVHAGGRLRLSCAASGRIFWINAMGWSRQAPGKDRELVATISSGSTSYADSVKGRFTISRDNAKNTVYLQMNRLKPEATAVYYCAVTLRYTRSGAYDYWGQGTQVTVSS
polyreactivity (PSR sort gate): low polyreactivity

QVQLVDSGGGLVQAGGSLRLSSAASGRTFDYYAMGWYRQAPGKERELVAAITKDGGSTYYADSVKGRFTISRDNAKNTVFLQMNSLKPEDTAVYYCAADGPPLYYDPIHYDYWGQGTQVTVSS
polyreactivity (PSR sort gate): low polyreactivity

QVQLVESGGGLVQAGGSLRLSCAAYGITFAYYVMGWYRQAPGKERELVAAISRSGSTYYADSVKGRFTISRDNAKITVYLQMNCLKPEDTAVYYCAVLYIRWYTYEYWGQGTQVTVSS
polyreactivity (PSR sort gate): high polyreactivity

QVQLVESGGGLVQAGGSLRLSCAASGRTFDGYAMGWYRQAPGKERELVAAISGSGGRTYYADSVKGRFTISRDNAKNTVYLQMNSLKPEVTAVYYCRGYYKYYPDEYDYWGQGTQVTVSS
polyreactivity (PSR sort gate): high polyreactivity

QVQLVESGGGLVQAGGSLRLSCAASGRIFHGYAMGWYRQAPGKERELVAAISATGGSTYYADSVKGRFTISRDNAKNTVYLQMNSLKPEDTAVYYCARTNFYRSYDPGGRFYNYDYWGQGTQVTVSS
polyreactivity (PSR sort gate): low polyreactivity

QVQLVESGGGLVQAGGSLRLSCAASGFIFFKYVMGWYRQAPGKERELVAAISTTGGRTYYADSVKGRFTISRDNAKNTVYLQMNSLKPEDTAVYYCAADYPVWNHGFDYWGQGTQVTVSS
polyreactivity (PSR sort gate): high polyreactivity

QVQLVESGGGLVQAGGSLRLSCAASGSTIFLYDMGWYRQAPGKESELVAAITISGGSTYYADSVKGRFTISRDNAKNTVDLQMNSLKPEDTAVYYCAADRQWISLFGYPDGYDYWGQGTQVTVSS
polyreactivity (PSR sort gate): high polyreactivity

QVQLVESGGGLVQAGGSLRLSCAASGTTFVSNAMGWYRQAPGKERELVAAISKSGGSTYYADSVKGRFTISRDNAKNTVYLQMNSLKPEDTAVYYCAKYTAKSFYGQYDYWGQGTQVTVSS
polyreactivity (PSR sort gate): high polyreactivity

QVQLVESGGGLVQAGRSLRLSCAASGRIFRVNAMGWYRQAPRKERQLVAAISVRGGSTYYADSVKGRFTISRDNAKNTVYLQMNSLKPEDTAVYYCAAPLVYFTPRYDYWGQGTQVTVSS
polyreactivity (PSR sort gate): high polyreactivity
